Results published in publication PMC9798557 (Journal of Hematology & Oncology, 2022).

Target: T1, human CD38 (Homo sapiens, UniProt P28907)
T1 construct: CD38, human; Used for both the SPR and the cryo-EM complex; probably a soluble extracellular form
Assay: SPR; Biacore 8 K
Details: both partners purified

Kd: 3.84 nM
B1: daratumumab (antibody, V domains shown)
VH: EVQLLESGGGLVQPGGSLRLSCAVSGFTFNSFAMSWVRQAPGKGLEWVSAISGSGGGTYYADSVKGRFTISRDNSKNTLYLQMNSLRAEDTAVYFCAKDKILWFGEPVFDYWGQGTLVTVSS
VL: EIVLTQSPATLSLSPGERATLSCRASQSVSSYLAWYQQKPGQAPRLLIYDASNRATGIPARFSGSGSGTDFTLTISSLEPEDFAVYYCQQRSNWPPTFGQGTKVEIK
notes: heavy chain of daratumumab; light chain of daratumumab; Marketed anti-CD38 mAb used as a comparator
